One block for each binder: values may come before it.
Key:
[1] = biological target: T1, human SIRPα V1-His monomer protein (human, UniProt P78324 31-373); assay: BLI (ForteBio Octet), antibody on AMC biosensor, SIRP-His monomer 100/33.3/11.1 nM, 1:1 model, averaged KD
T1 construct: SIRP-His monomer used as analyte in BLI (Octet); also called SIRP-His; monomeric human SIRPα; not shown: His tag

[2] = biological target: T2, cynomolgus monkey SIRPα, extracellular domain (cynomolgus monkey, UniProt A0A2K5VYQ9 31-372); assay: SPR (BIACORE), antibody captured, monomeric SIRPα as analyte
T2 construct: extracellular domain; Monomeric protein in SPR; also called Cyno SIRPα; monomeric cynomolgus monkey SIRPα

[3] = biological target: T3, human SIRPα V1, extracellular domain (human, UniProt P78324 31-373); assay: SPR (BIACORE), antibody captured on chip, monomeric SIRPα ECD as analyte, 1:1 model
T3 construct: also called hSIRPα V1; monomeric human SIRPα
Method: (§1) The affinities of these SIRPα antibodies were determined using surface plasmon resonance. The SIRPα antibodies were flowed onto a chip and captured by an anti-human IgG covalently coupled to the surface of the chip. A three-point titration of the extracellular binding domain of hSIRPα was performed per the manufacturer’s recommended protocols.

[4] = biological target: T4, human SIRPβ1-His monomer protein (human, UniProt O00241 30-371); assay: BLI (ForteBio Octet), antibody on AMC biosensor, SIRP-His monomer 100/33.3/11.1 nM, 1:1 model, averaged KD
T4 construct: also called SIRP-His; monomeric human SIRPβ1; not shown: His tag
T4 sequence (O00241 30-371 limits assumed): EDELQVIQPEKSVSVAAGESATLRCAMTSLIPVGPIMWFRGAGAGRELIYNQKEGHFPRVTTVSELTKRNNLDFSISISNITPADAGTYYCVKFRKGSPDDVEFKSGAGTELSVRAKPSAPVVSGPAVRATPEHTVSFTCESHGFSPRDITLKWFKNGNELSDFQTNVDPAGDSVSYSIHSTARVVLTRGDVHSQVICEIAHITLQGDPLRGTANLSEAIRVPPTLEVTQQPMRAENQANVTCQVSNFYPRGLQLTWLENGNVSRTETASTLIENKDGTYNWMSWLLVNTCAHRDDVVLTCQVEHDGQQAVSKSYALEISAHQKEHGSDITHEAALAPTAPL

[5] = biological target: T2, cynomolgus monkey SIRPα, extracellular …; assay: SPR (BIACORE), antibody captured on chip, monomeric SIRPα as analyte, 1:1 model
Method: as §1

[6] = biological target: T2, cynomolgus monkey SIRPα, extracellular …; assay: SPR (BIACORE), antibody captured by anti-human IgG, monomeric SIRPα as analyte, 1:1 model
Method: as §1

[7] = biological target: T3, human SIRPα V1, extracellular domain; assay: SPR (BIACORE), antibody captured by anti-human IgG, monomeric SIRPα ECD as analyte, 1:1 model
Method: as §1

[8] = biological target: T5, human SIRPα V2, extracellular domain (human, UniProt P78324 31-373); assay: as above
T5 construct: also called hSIRPα V2
Method: as §1

- binding result [2]: no binding
- Kd [3]: 89.5 nM
- Kd [4]: 3620 nM
- Kd [1]: 11 nM
B3: Antibody 2 (antibody, V domains shown)
VH: QVQLVQSGAEVKKPGASVKVSCKASGYTFTGYYIFWMRQAPGQGLEWMGWINPNSGGTDYAQKFQGRVTMTMDTSISTAYMELSRLRSDDTAVYYCAREDCTSISCSFDYWGQGTLVTVSS
VL: not shown
notes: Human variable region with rat IgG2b Fc

- Kd [6]: 30.6 nM
- Kd [7]: 2 nM
B5: Antibody 27 (antibody, V domains shown)
VH: EVQLLESGGGLVQPGGSLRLSCAASGFTLSSYAMSWVRQAPGKGLEWVSISSGSGANTYNADSLKGRFTISRDNSKNTLFLQMNSLRAEDTAVYYCARLRFFDWFDYWGQGALVTVSS
VL: QAVVTQESALTTSPGETVTLTCRSSTGAVTTSNYANWVQEKPDHLFTGLIGGTNNRTPGVPARFSGSLIGDKAALTITGAQTEDEAIYFCALWYSNHWVFGGGTKLTVL

- Kd [6]: 35.5 nM
- Kd [8]: 11.5 nM
- Kd [7]: 2.59 nM
B6: Antibody 22 (antibody, V domains shown)
VH: EVQLLESGGGLVQPGGSLRLSCAASGFTLSSYAMSWVRQAPGKGLEWVSISSGSGANTYNADSLKGRFTISRDNSKNTLFLQMNSLRAEDTAVYYCARLRFFDWFDYWGQGALVTVSS
VL: QAVVTQESALTTSPGETVTLTCRSSTGAVTTSNYANWVQEKPDHLFTGLIGGTNNRTPGVPARFSGSLIGDKAALTITGAQTEDEAIYFCALWYSNHWVFGGGTKLTVL
notes: Same variable domains as Antibody 6 with human IgG1 Fc

Continued, binder first:

B1: Antibody 17 (antibody, mouse IgG2a, V domains shown)
VH: EVQVVESGGGLVKPGGSLKISCAASGFAFSSYDMSWVRQTPEKRLEWVAYISSGGGSIYYAETVKGRFTISRDNAKNTLYLQMSSLKSEDTAMYYCVRHGYHEYFDVWGAGTTVTVSS
VL: DVLMTQTPLSLPVSLGDQASISCRSSQSIVHSNGNTYLEWYLQKPGQSPKLLIYKVSNRFSGVPDRFSGSGSGTDFTLKISRVEAEDLGVYFCFQGSHFPYTFGGGTKLEIK
notes: Mouse IgG2a Fc
- Kd [1]: 206 nM

B2: Antibody 5 (antibody, rat IgG2b, V domains shown)
VH: QVQLVESGGGVVQPGRSLRLSCAASGFTFSNYGMHWVRQAPGKGPEWVAVIWYDGSYKYYGDSVKGRFTISRDNSKNTLYLQMNSLRAEDTAVYYCVRESVGYSSGWSFDYWGQGILVTVSS
VL: DIQMTQSPSTLSASVGDRVTITCRASQSISSWLAWYQQKPGKVPKLLIYKASSLKTGVPSRFSGNGSGTEFTLTISSLQPDDFATYYCQQYNSYSWTFGQGTKVEIK
notes: as for B3
- Kd [1]: 17.3 nM

B4: Antibody 6 (antibody, rat IgG2b, V domains shown)
VH: EVQLLESGGGLVQPGGSLRLSCAASGFTLSSYAMSWVRQAPGKGLEWVSISSGSGANTYNADSLKGRFTISRDNSKNTLFLQMNSLRAEDTAVYYCARLRFFDWFDYWGQGALVTVSS
VL: QAVVTQESALTTSPGETVTLTCRSSTGAVTTSNYANWVQEKPDHLFTGLIGGTNNRTPGVPARFSGSLIGDKAALTITGAQTEDEAIYFCALWYSNHWVFGGGTKLTVL
notes: as for B3
- Kd [5]: 56.1 nM
- Kd [3]: 4.1 nM
- Kd [4]: 0.456 nM
- Kd [1]: 1.21 nM

B7: Antibody 19 (antibody, mouse IgG1, V domains shown)
VH: QVQLQQSGAELVRPGASVTLSCKASGYTFTDYEMHWVKQTPVHGLEWIGAIDPETGGTAYNQKFKGKATLTADKSSSTAYMELRSLTSEDSAVYYCTGITRFAYWGQGTLVTVSA
VL: SIVMTQTPKFLLVSAGDRVTITCKASQSVSNDVAWYQQKPGQSPKLLIYYASNRYTGVPDRFTGSGYGTDFTFTISTVQAEDLAVYFCQQDYSSPWTFGGGTKLEIK
notes: Mouse IgG1 Fc
- Kd [4]: 75.9 nM
- Kd [1]: 3.79 nM

B8: Antibody 16 (antibody, mouse IgG2a, V domains shown)
VH: QVQLQQSGAELAKPGASVKMSCKASGYTFTSYWMHWVKQRPGQGLEWIGYIDPSTGYTFHNQKFKDKATLTADKSSTTAYMQLRSLTSEDSAVYYCARRDYGSSFYAMDYWGHGTSITVSS
VL: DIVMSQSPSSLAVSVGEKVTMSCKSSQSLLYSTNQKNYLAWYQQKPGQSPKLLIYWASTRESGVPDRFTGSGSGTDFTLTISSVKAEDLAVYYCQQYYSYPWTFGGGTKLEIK
notes: Mouse IgG2a Fc
- Kd [4]: 83.9 nM
- Kd [1]: 1.21 nM
